For data set [1], the system named is Wt26 (DNA, G4) TTAGGGTTAGGGTTAGGGTTAGGGTT
Kind of data set: EMSA, inhibition of hPOT1 binding. Conditions: 100 mM NaCl; 50 mM HEPES pH 7.9, room temperature; 30 nM hPOT1 displaced; 20 nM DNA; indirect. In general terms: In EMSA bound probe runs differently from free probe, usually more slowly.

Data set [2] shares this test system. Kind of data set: EMSA, inhibition of Topo IIIα binding. The note with it: 100 mM NaCl; 50 mM HEPES pH 7.9, room temperature; 50 nM Topo IIIα displaced; 20 nM DNA; indirect.
For data set [3], the system named is 21G (DNA, G4) GGGTTAGGGTTAGGGTTAGGG
Kind of data set: EMSA, inhibition of Topo IIIα binding. The note with it: 100 mM NaCl; 50 mM HEPES pH 7.9, room temperature; 50 nM Topo IIIα displaced; 20 nM DNA; indirect.

Data set [4] has as its system 21Gmu (21G mu3) (DNA, single strand) GGCTTACGGTTAGCGTTAGGG
Description: EMSA, inhibition of Topo IIIα binding. The note with it: 100 mM NaCl; 50 mM HEPES pH 7.9, room temperature; 50 nM Topo IIIα displaced; 20 nM DNA; indirect.

Data set [5] relates to S310 (DNA, single strand) CCAGCTCTGCTTTGCATCTTT
Kind of data set: EMSA, inhibition of Topo IIIα binding. Conditions: 100 mM NaCl; 50 mM HEPES pH 7.9, room temperature; 50 nM Topo IIIα; 20 nM DNA; up to 10 µM telomestatin; indirect.

Data set [6] addresses T1, Topoisomerase IIIα (Topo III) (human, UniProt Q13472 1-1001).
T1 sequence: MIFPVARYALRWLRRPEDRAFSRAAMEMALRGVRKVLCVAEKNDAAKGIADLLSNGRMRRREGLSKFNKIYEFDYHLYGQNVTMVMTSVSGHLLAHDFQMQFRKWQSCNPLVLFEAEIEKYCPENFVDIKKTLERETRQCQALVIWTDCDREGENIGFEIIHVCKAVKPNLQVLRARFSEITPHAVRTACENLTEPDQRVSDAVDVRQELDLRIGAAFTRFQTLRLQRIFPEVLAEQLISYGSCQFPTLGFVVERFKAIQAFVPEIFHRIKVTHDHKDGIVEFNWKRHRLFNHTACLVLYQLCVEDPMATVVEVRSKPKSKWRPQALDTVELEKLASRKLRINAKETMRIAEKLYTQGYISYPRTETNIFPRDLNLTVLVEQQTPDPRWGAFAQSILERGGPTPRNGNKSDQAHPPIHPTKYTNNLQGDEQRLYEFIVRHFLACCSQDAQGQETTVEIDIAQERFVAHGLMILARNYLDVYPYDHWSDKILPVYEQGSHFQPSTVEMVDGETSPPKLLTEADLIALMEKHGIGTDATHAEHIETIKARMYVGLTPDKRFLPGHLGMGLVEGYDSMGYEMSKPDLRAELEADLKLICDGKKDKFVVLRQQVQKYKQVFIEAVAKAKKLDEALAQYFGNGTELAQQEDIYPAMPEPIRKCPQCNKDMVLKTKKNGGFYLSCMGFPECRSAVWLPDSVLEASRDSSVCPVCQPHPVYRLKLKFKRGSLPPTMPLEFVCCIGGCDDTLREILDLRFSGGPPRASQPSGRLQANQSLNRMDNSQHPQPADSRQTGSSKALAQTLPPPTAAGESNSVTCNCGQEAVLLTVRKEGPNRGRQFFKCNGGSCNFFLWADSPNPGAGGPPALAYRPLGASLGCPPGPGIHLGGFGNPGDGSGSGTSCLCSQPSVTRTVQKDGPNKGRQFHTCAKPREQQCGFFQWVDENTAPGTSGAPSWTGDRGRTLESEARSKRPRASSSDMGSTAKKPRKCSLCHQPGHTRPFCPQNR
Kind of data set: competition; unlabelled competitor vs 32P-24C (20 nM), Topo III 50 nM; 50 mM HEPES pH 7.9, 100 mM NaCl, 0.1 mM EDTA, 4% sucrose, 2% glycerol, 0.1 mg/mL BSA, 0.02% bromophenol blue, 20 nM probe, room temperature 30 min; 1% agarose. Conditions: protein: recombinant; G4-forming.

The target of data set [7] is T1, Topoisomerase IIIα (Topo III). Description: EMSA; no telomestatin; 50 mM HEPES pH 7.9, 100 mM NaCl, 0.1 mM EDTA, 4% sucrose, 2% glycerol, 0.1 mg/mL BSA, 0.02% bromophenol blue, 20 nM probe, room temperature 30 min; 1% agarose. The note with it: protein: recombinant.
The target in a further data set is T2, hPOT1 (human, UniProt Q9NUX5 1-634).
T2 sequence: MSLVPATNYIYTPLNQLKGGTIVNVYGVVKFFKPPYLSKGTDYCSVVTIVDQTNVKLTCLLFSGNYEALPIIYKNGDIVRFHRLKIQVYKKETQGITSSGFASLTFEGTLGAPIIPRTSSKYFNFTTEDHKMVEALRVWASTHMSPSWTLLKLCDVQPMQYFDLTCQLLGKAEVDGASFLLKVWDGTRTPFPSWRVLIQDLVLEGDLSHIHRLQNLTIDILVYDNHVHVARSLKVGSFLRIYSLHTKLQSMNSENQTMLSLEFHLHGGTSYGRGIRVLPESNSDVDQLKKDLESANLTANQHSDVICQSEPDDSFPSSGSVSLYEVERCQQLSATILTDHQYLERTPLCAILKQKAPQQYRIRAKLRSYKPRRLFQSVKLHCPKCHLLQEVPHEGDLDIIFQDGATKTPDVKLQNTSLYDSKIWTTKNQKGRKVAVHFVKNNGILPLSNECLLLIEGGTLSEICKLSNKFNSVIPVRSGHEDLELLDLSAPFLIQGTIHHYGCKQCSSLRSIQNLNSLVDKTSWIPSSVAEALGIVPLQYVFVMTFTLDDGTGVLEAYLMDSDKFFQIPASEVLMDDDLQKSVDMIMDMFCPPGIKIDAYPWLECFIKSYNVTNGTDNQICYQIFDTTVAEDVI
Description: EMSA; no telomestatin; POT1 30 nM, probe 20 nM; 50 mM HEPES pH 7.9, 100 mM NaCl, 0.1 mM EDTA, 4% sucrose, 2% glycerol, 0.1 mg/mL BSA, 0.02% bromophenol blue, 20 nM probe, room temperature 30 min; 1% agarose. Conditions: protein: recombinant; label: 32P; G4-forming.

Data set [8] has as its target T1, Topoisomerase IIIα (Topo III). Description: competition; unlabelled competitor vs 32P-24C; more potent than Pu22myc; non-G4 IC50s 4.3-10.1-fold lower than G4 oligos overall; 50 mM HEPES pH 7.9, 100 mM NaCl, 0.1 mM EDTA, 4% sucrose, 2% glycerol, 0.1 mg/mL BSA, 0.02% bromophenol blue, 20 nM probe, room temperature 30 min; 1% agarose. The note with it: protein: recombinant; single strand, cannot form G4.

For data set [9] the target is unchanged. Kind of data set: EMSA; no ligand; probe 20 nM, Topo III 50 nM; 50 mM HEPES pH 7.9, 100 mM NaCl, 0.1 mM EDTA, 4% sucrose, 2% glycerol, 0.1 mg/mL BSA, 0.02% bromophenol blue, 20 nM probe, room temperature 30 min; 1% agarose. The note with it: protein: recombinant; label: 32P; single strand.

As for `Cc1oc2nc1-c1nc(co1)-c1nc(co1)-c1nc(co1)-c1nc(co1)-c1nc(co1)C1=NC(CS1)c1nc-2c(C)o1` (stereo not shown), the IC50 (in general, the concentration that gives 50% inhibition) in data set [1] was 100 nM; in data set [2], 60 nM; in [3], 300 nM; in data set [4] it was above 10000 nM. The binding entry in data set [5] is on record as “no”.
Take GAGGGTGGGGAGGGTGGGGAAG (structured_DNA) [Pu22myc]: the binding signal in [6] was ~3 fold higher concentration than Pu22mu needed to inhibit binding.
For CCAGCTCTGCTTTGCATCTTT (ssDNA) [S310], the binding result in [7] (label: 32P) was “binds”.
As to TTAGGGTTAGGGTTAGGGTTAGGGTT (structured_DNA) [Wt26], the binding result in data set [7] (label: 32P, G4-forming) is listed as “binds”; with hPOT1, “binds”.
Take GAGGGTGAAGAGGGTGGGGAAG (ssDNA) [Pu22mu]: the binding result in [8] is given as “binds”.
With GGCTTACGGTTAGCGTTAGGG (ssDNA) [21G mu3 (21Gmu)], the binding result in [7] (label: 32P when used as probe, single strand, cannot form G4) was “binds”.
Regarding GGGTTAGGGTTAGGGTTAGGG (structured_DNA) [21G], in data set [7] (label: 32P when used as probe, G4-forming), the binding result is reported as “binds”.
As for CCCTAACCCTAACCCTAACCCTAA (ssDNA) [24C], the binding result in [9] is “binds”.

For the origin of these results see article PMC2732903.
